Results published in patent EP4563159A1.

Biological target: secretory IgA from human colostrum (human) (UniProt P11912)
Experiment: solid-phase IgA binding assay (ELISA): streptavidin-peptide conjugate coated, secretory IgA from human colostrum titrated, anti-human IgA-HRP detection

UniProt P11912, sequence (P11912 whole entry): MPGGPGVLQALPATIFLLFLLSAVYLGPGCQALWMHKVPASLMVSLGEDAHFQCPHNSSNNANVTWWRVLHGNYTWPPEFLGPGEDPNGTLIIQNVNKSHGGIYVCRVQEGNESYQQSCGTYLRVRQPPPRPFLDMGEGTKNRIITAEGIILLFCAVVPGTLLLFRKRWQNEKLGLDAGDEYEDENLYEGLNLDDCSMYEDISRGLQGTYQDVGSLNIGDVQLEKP

Row | EC50 [nM] | Binder
1 | 900 | HSVCLAYRGRPVCFPT (cyclized; carboxy terminal PEG linker and a biotin tag) [IgA binding peptide … (SEQ ID NO 36)]
2 | 900 | KMVCLAYRGRPVCFPT (cyclized; carboxy terminal PEG linker and a biotin tag) [IgA binding peptide … (SEQ ID NO 35)]
